{
  "source": "patent US6613506B1",
  "about": "“Compositions and methods for inhibiting human immunodeficiency virus infection by down-regulating human cellular genes” (Subsidiary No. 3, Inc., priority 2000, dated 2003)",
  "key": {"[1]": {"system": "latent HIV provirus in OM10.1 cells", "experiment": "Induction of latent HIV provirus by TNF-α in OM10.1 cells (CD4 retention, p24)", "type": "cell-based, HIV-1", "method": "In order to determine p24 expression in HIV-infected cells, the cells were first washed twice with Assay Buffer. About 10^6 cells were suspended in 100 μL Assay Buffer, mixed with 2 mL of Ortho PermeaFix Solution (available from Ortho Diagnostics), and incubated for 40 min. at room temperature. After centrifugation at 1200 rpm for 4 min. at 4EC, the cells were resuspended in 2 mL Wash Buffer (500 mL PBS, 25 mL fetal bovine serum, 1.5% bovine serum albumin and 0.0055% EDTA) for 10 min. at room temperature. After centrifugation, the cells were resuspended in 50 ΦL Wash Buffer and mixed with 1:500 dilution of an IgG2a antibody for 20 min. at 4EC, followed by incubation with 5-10 ΦL of anti-p24 antibody (KC57-FITC, available from Coulter) for 30 min. at 4EC. The cells were then washed twice with Wash Buffer and analyzed by flow cytometry.\n(§1) One strategy selected for GSEs which suppressed productive infection of cells by HIV. The second strategy selected for GSEs which suppressed induction of the latent provirus in OM10.1 cells. When OM10.1 cells were treated with TNF-α and stained with an antibody specific for the cell surface molecule CD4, a rapid loss of CD4 expression was observed (FIG. 1). In contrast, the vast majority of the uninduced OM10.1 cells retained CD4 expression. It is believed that activation of the latent virus in OM10.1 cells by TNF-α leads to the production of viral protein gp120, which binds to cytoplasmic CD4, thereby preventing its translocation to the cell surface. A diminution of CD4^+ OM10.1 cells also correlates with an increased production of viral protein p24 in the cells following TNF-α induction.\nOM10.1 cells were cultured in RPMI 1640 glucose-free media prior to and during incubation with NADH dehydrogenase inhibitors and TNF-á induction. The inhibitors were added to the cells followed by TNF-á induction 1-2 hours later. The expression of CD4 by the cells was assessed by anti-CD4 antibody staining and flow cytometry after 24 hour incubation at 37° C."}, "HIV [2]": {"system": "HIV", "experiment": "Selection of GSEs from RFE libraries using OM10.1 and CEM-ss cells (strategy not stated per GSE)", "type": "cell-based, HIV-1", "conditions": "GSEs matching NADH dehydrogenase subunit genes", "method": "The libraries prepared from HL-60 cells according to the method of Section A of this Example, were transfected into the packaging cell line, PA317 (ATCC CRL #9078), and converted into retrovirus for infection of OM10.1 cells. Libraries in pLNCX vector were co-cultured and selected with G418. Libraries in pLNGFRM vector were transduced by spinoculation (centrifugation of target cells at 1200×g for 90 min. in the presence of filtered retroviral supernatant; Dunn et al., 1999, Gene Therapy 6: 133-137) and selected by FACS sorting of the NGFR^+ population. After selection, the OM10.1 cells harboring the entire RFE library were induced with 10 U/mL of TNF-α at 37EC, and 24 hours later, were stained with an antibody and sorted for CD4 expression. Genomic DNA from the CD4^+ cells was purified and used for PCR amplification of inserts with the vector-derived primers. The amplified mixture was digested with EcoRI and BamHI and cloned back into the retroviral vector. The selection was repeated for additional rounds.\nAdditionally, a normalized RFE library made from HeLa cells was transferred into CEM-ss cells and the neo resistant population was infected with TCID50 of 3000/10^6 cells of HIV-1IIIB. This RFE library was represented by 50×10^6 independent recombinant clones. Four and seven days after infection, a purified anti-CD4 monoclonal antibody, L77 (available from Becton Dickinson), was added at 5 Φg/mL to prevent syncytia formation. Syncytia formation is thought to be prevented by blocking the interaction between gp120 expressed on the surface of an infected cell and CD4 on the surface of an uninfected cell. […] At 10-12 days after infection, CD4^+, p24^− cell population representing uninfected cells were sorted. Genomic DNA from the CD4^+, p24^− cells was purified and used for PCR amplification of inserts with the vector-derived primers. The amplified mixture was digested with EcoRI and BamHI and cloned back into the retroviral vector. The selection was repeated for additional rounds.\nas §1\nGSEs derived from cDNAs representing expressed human cellular genes were identified and isolated from a RFE library made from HL-60 cells using HIV provirus activation in OM10.1 cells as a read-out. Following transfection of the entire library into a packaging cell line, retrovirus carrying the library was used to infect OM10.1 cells by co-cultivation or spinoculation, and NGFR selection was performed to ensure the retention of the viral vector. When the infected cells were treated with TNF-α a small number of residual CD4^+ cells were detected by an anti-CD4 antibody and sorted by FACS. The GSEs contained in these cells were recovered by PCR amplification and their nucleotide sequences determined.\nA total of twenty GSEs were isolated by the two aforementioned selection strategies using OM10.1 and CEM-ss cells. […] CF-315 was further shown to protect uninfected human T cells from a productive HIV-1 infection (FIG. 2). In this experiment, the retroviral vector, pLNGFRM, containing the CF-315 nucleic acid molecule was transferred into CEM-ss cells followed by NGFR selection. Vector containing plasmid DNA (denoted LNGFRM) was used as negative control. […]"}, "HIV [3]": {"system": "HIV", "experiment": "Selection of GSEs from PBMC library using CEM-ss cells", "type": "cell-based", "method": "A cell-derived random fragment library (RFL) was constructed using cDNA from peripheral blood mononuclear cells (PBMC). Four buffy coats were obtained from four healthy blood donors and PBMCs were purified by Ficoll gradient centrifugation followed by stimulation with PHA (1 μg/mL). Cells were removed at 5, 10, and 24 hours after the addition of PHA and total RNA was isolated by Trizol extraction. All time points from all donors were then pooled. Polyadenylated mRNA was purified from the total RNA by passages through an oligo-dT column. cDNA was synthesized from the polyadenylated RNA with random primers using the Gibco Superscript Choice system for cDNA Synthesis (Gibco BRL, Rockville, Md.). The cDNA was normalized using the PCR-Select cDNA Subtraction kit (Clontech, Palo Alto, Calif.) based on the suppression subtractive hybridization methods of Diatchenko et al. (1996, Proc. Natl. Acad. Sci. USA 93, 6025-6030, 1996). The primers used for the normalization were: […]\nThe normalized random fragments were digested with XhoI and Sse83871, purified on quick spin columns (available from Qiagen, Valencia, Calif.) and ligated into the SseI/XhoI site of a bicistronic retroviral vector, EMCVNgfrMPBIN. This vector was based on LXSNgfr as described in Dunn el al. (1999, Gene Therapy 6:130-137). Modifications included substitution of the Moloney murine leukemia virus LTR with the hybrid LTR described by Baum et al., 1995, (J. Virol. 69:7541-7547) and replacement of the SV40 promoter with encephalomyocarditis virus (EMCV) internal ribosomal entry site isolated from the plasmid, pCITE (available from Amersham, Arlington Heights, Ill.). The ligation mix was then transformed into competent cells. The total plasmid was purified from approximately 50 million clones.\nThe PBMC library was screened using the methods described above in Section 1F. A total of 14 GSEs were isolated using CEM-ss cells. […] The complement of SEQ ID NO:69 is represented by SEQ ID NO:70. CF-675 (SEQ ID NO:71) is another GSE that has substantial sequence identity with a gene encoding human translationally controlled tumor protein 1 (GenBank Accession No. HUMCH13C4A). The complement of SEQ ID NO:71 is represented by SEQ ID NO:72. CF-679 (SEQ ID NO:83) is another GSE that has substantial sequence identity with a gene encoding human translationally controlled tumor protein 1 (GenBank Accession No. HUMCH13C4A). The complement of SEQ ID NO:83 is represented by SEQ ID NO:84. […] The complement of SEQ ID NO:75 is represented by SEQ ID NO:76. […] The complement of SEQ ID NO:79 is represented by SEQ ID NO:80. […] The complement of SEQ ID NO:67 is represented by SEQ ID NO:68. […] The complement of SEQ ID NO:63 is represented by SEQ ID NO:64. CF-675 (SEQ ID NO:65) is another GSE that has substantial sequence identity with a gene encoding alpha enolase protein. The complement of SEQ ID NO:65 is represented by SEQ ID NO:66. […] The complement of SEQ ID NO:73 is represented by SEQ ID NO:74. […] The complement of SEQ ID NO:81 is represented by SEQ ID NO:82. […] The complement of SEQ ID NO:85 is represented by SEQ ID NO:86. […] The complement of SEQ ID NO:89 is represented by SEQ ID NO:90. […] The complement of SEQ ID NO:91 is represented by SEQ ID NO:92. […] The complement of SEQ ID NO:93 is represented by SEQ ID NO:94. Another member of the cluster is CF-686 (SEQ ID NO:95), also having substantial sequence identity with a gene encoding cell surface heparin binding protein (Liu et al., ibid.). The complement of SEQ ID NO:95 is represented by SEQ ID NO:96."}},
  "data": [
    {"molecule": "CCC1(CCC(C)C)C(=O)NC(=O)NC1=O", "note": "[amytal, Amytal]", "values": [
      {"measurement": "inhibition of induction of latent HIV provirus (retention of CD4 expression)", "setting": "[1]; TNF-α-induced OM10.1 cells, 24 hour incubation, FIG. 5 / FIG. 6", "value": "inhibited the induction of latent HIV provirus in OM10.1 cells in a dose-dependent manner"},
      {"measurement": "intracellular p24 levels", "setting": "[1]; treated cells compared with untreated controls", "value": "suppressed intracellular p24 levels"}
    ]},
    {"molecule": "CF-025: GSE, SEQ ID NO:5, antisense; NADH dehydrogenase ND2 subunit gene (nucleic acid, listed as Homo sapiens) antisense: GAAGAAGCAGGCCGGATGTCAGAGGGGTGCCTTGGGTAACCTCTGGGACTCAGAAGTGAAAGGGGGCTATTCCTAGTTTTATTGCTATAGCCATTATGATTATTAATGATGAGTAT", "values": [
      {"measurement": "HIV-suppressive activity of the GSE and active orientation", "setting": "HIV [2]", "value": "suppresses HIV infection as an antisense molecule"}
    ]},
    {"molecule": "CF-681: GSE, SEQ ID NO:85, antisense; FK506-binding protein A1 gene (nucleic acid, listed as Homo sapiens) antisense: TGGGGGAAGGGTGCAGCAACGATTTCTCACCAAATCACTACACAGGACAGCAAAGGGGTGAGAAGGGGCTGAGGGAGGAAAAGCCAGGAAACTGAGATCAGCAGAGGGAGCCAAGCATCAAAAAACAGGAGATGCTGAAGCTGCGATGACCAGCATCATTTTCTTAAGAGAACATTCAAGGATTTGTCATGATGGCTGGGCTTTCACTTGGTGTTAAGTCTACAAACAGCACCTTCAATTGGAACTGTCAATTAAAGTTCTTAAGATTTAGGAAGTGGTGGAGCTTGGAAAGTTATGAGATTACAAAATTTCTGAAAGTC", "values": [
      {"measurement": "HIV-suppressive activity of the GSE and active orientation", "setting": "HIV [3]", "value": "interferes with HIV replication as an antisense molecule"}
    ]},
    {"molecule": "CF-101: GSE, SEQ ID NO:3, sense; NADH dehydrogenase ND2 subunit gene (nucleic acid, listed as Homo sapiens) sense: CATCAGCCCTTCTTAACATCTACTTCTACCTACGCCTAATCTACTCCACCTCAATCACACTACTCCCCATATCTAACAACGTAAAAATAAAATGACAGTTTGAGCATACAAAACCCACCCCATTCCTCCCCACACTCATCGCC", "values": [
      {"measurement": "HIV-suppressive activity of the GSE and active orientation", "setting": "HIV [2]", "value": "exhibits its HIV-suppressive activities in the sense orientation"}
    ]},
    {"molecule": "CF-128: GSE, SEQ ID NO:6, sense; NADH dehydrogenase ND4 subunit gene (nucleic acid, listed as Homo sapiens) sense: TCCTAGTCCTCACAATCATGGCAAGCCAGCGCCACTTATCCAGTGAACCACTATCACGAAAAAAACTCTACCTCTCTATACTAATCTCCCTACAAATCTCATTAATTATAATATTCACAACCACAGA", "values": [
      {"measurement": "HIV-suppressive activity of the GSE and active orientation", "setting": "HIV [2]", "value": "suppresses HIV infection in the sense orientation"}
    ]},
    {"molecule": "CF-319: GSE, SEQ ID NO:2, sense; NADH dehydrogenase ND6 subunit gene (nucleic acid, listed as Homo sapiens) sense: GATCCTCCCGAATCAACCCTGACCCCTCTCCTTCATAAATTATTCAGCTTCCTACACTATTAAAGTTTACCACAACCACCACGCCATCATACTCCTTCAC", "values": [
      {"measurement": "HIV-suppressive activity of the GSE and active orientation", "setting": "HIV [2]", "value": "suppresses HIV replication in the sense orientation"}
    ]},
    {"molecule": "CF-117: GSE, SEQ ID NO:4, antisense; NADH dehydrogenase ND6 subunit gene (nucleic acid, listed as Homo sapiens) antisense: GTGAAAGAGTATGATGGGGTGGTGGTTGTCGTAAACTTTAATAGTGTAGGAAGCTGAATAATTTATAAAGGAGAGGGGACAGGGTTGATTCGGGAGGATC", "values": [
      {"measurement": "HIV-suppressive activity of the GSE and active orientation", "setting": "HIV [2]", "value": "suppresses HIV activities as an antisense molecule"}
    ]}
  ]
}
